Patent US12157773 (SYNTHEKINE, dated 2024)

T1: hIL27Rα ECD antigen (human, UniProt Q6UWB1 33-516)
T1 construct: Antigen of biopanning and PE-ELISA; also called ECD of the human IL27Rα; IL27Rα coated on the plate
T1 sequence: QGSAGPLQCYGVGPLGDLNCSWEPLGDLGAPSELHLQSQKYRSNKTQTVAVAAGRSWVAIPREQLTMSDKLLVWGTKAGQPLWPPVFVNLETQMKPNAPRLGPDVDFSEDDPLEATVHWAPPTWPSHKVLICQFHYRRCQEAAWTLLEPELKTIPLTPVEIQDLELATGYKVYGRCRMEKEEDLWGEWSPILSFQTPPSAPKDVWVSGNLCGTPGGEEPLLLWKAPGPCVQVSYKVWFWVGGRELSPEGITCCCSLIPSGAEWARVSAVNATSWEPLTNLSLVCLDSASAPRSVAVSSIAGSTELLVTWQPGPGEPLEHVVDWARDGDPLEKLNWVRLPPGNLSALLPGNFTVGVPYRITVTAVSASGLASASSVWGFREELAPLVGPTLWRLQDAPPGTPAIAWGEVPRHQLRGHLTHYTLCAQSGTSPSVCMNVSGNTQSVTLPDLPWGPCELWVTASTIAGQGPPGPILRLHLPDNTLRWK

T2: mIL27Rα ECD antigen (mouse, UniProt O70394 25-510)
T2 construct: Antigen of biopanning and PE-ELISA; The immunogen was made as a fusion of the ECD (residues 25-510 of the precursor) with the human IgG1 hinge and Fc; also called ECD of mouse IL27Rα; IL27Rα coated on the plate
T2 sequence: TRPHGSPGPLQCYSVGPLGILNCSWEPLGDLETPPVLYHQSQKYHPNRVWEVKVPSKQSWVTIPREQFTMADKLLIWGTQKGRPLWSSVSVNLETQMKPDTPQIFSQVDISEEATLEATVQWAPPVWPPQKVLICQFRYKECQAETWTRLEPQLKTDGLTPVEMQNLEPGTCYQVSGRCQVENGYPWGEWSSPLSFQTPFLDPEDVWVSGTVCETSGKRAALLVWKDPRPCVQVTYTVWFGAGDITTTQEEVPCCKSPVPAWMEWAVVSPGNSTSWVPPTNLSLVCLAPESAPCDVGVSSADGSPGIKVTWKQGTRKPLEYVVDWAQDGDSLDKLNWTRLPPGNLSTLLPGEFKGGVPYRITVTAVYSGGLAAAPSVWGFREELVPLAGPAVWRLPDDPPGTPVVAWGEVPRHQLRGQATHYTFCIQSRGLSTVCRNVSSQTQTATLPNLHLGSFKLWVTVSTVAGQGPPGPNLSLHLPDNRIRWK

B1: hIL27Ra VHH17 (VHH)
VHH: QVQLQESGGGLVQPGGSLRLSCAASGFTFSLSGMSWVRQAPGKGLEWVSAISSGGASTYYTDSVKGRFTISRDNAKNMLYLQLNSLKTEDTAMYYCAKGGSGYGDASRMTSPGSQGTQVTVSS
notes: Camel VHH as periplasmic extract of a phage clone in the PE-ELISA; also called anti-human IL27Rα VHH; not shown: HA/His tag from the pMECS phagemid
B2: hIL27Ra VHH2 (VHH)
VHH: QVQLQESGGGLVQPGGSLRLSCAASGFTFSLSGMSWVRQAPGKGLEWVSAISSGGASTYYTDSVKGRFTISRDNAKNILYLQLNSLKTEDTAMYYCAKGGSGYGDASRMTSPGSQGTQVTVSS
notes: as for B1
B3: hIL27Ra VHH24 (VHH)
VHH: QVQLQESGGGLVQPGGSLRLSCAASGFTFSHSGMSWVRQAPGKGLEWVSTINSGGASTYYTDSVKGRFTISRDNAKNMLYLQLNSLKTEDTAMYYCAKGGSGYGDASRMTSPGSQGTQVTVSS
notes: as for B1
B4: mIL27Ra VHH1 (VHH)
VHH: QVQLQESGGGSVQAGGSLRLSCAASKNSNFMGWFRQAPGKEREGVAAMMTKNNNTYYADSVKGRFTISHDNAKNTVYLQMDSLKPEDTAVYYCAAVYRTRRLRVLEAANFDYWGQGTQVTVSS
notes: Camel VHH as periplasmic extract of a phage clone in the PE-ELISA; also called anti-mouse IL27Rα VHH; not shown: HA/His tag from the pMECS phagemid
B5: mIL27Ra VHH3 (VHH)
VHH: QVQLQESGGGSVQAGGSLRLSCAGSGYSLSNYCMGWFRQAPGQGREGVASLRFVSGATFYADSVKGRFTIAQDNAKNTLYLQMNSLKPEDTAMYYCGIKSRGICGGRLVDVDFGNWGQGTQVTVSS
notes: as for B4
B6: hIL27Ra VHH14 (VHH)
VHH: QVQLQESGGGSVQAGGSLRLSCVASGYVSCDYFLPSWYRQAPGKEREFVSIIDGTGSTSYAASVKGRFTASQDKGKNIAYLQMNSLKPEDTAMYYCKASCVRGRAISEYWGQGTQVTVSS
notes: as for B1
B7: hIL27Ra VHH18 (VHH)
VHH: QVQLQESGGGSVQAGGSLRLSCVASGYVSCDYFLPSWYRQAPGKEREFVSIIDGTGSTSYAASVKGRFTASQDKGKNIAYLQMNSLKPEDTAMYYCKASCVRGRGISEYWGQGTQVTVSS
notes: as for B1
B8: hIL27Ra VHH3 (VHH)
VHH: QVQLQESGGGSVQAGGSLRLSCVASGYVSCDYFLPSWYRQAPGKEREFVSIIDGTGSTSYAASVKGRFTASEDKGKNIAYLQMNSLKPEDTAMYYCKASCVRGRAVSEYWGQGTQVTVSS
notes: as for B1
B9: hIL27Ra VHH13 (VHH)
VHH: QVQLQESGGGSVQAGGSLRLSCVASGYVSCDYFLPSWYRQAPGKEREFVSIIDGTGSTSYAASVKGRFTASQDRGKNIAYLQMNSLKPEDTAMYYCKASCVRGRTISEYWGQGTQVTVSS
notes: as for B1
B10: hIL27Ra VHH5 (VHH)
VHH: QVQLQESGGGSVQAGGSLRLSCTASGYVSCDYFLPSWYRQAPGKEREFVSVIDGTGSTSYAASVKGRFTASQDKGKNIAYLQMNSLKPEDTAMYYCKASCVRGRAISEYWGQGTQVTVSS
notes: as for B1
B11: mIL27Ra VHH13 (VHH)
VHH: QVQLQESGGGSVQAGGSLRLSCAASGYSINRMGWFRQAPGKEREGVAAISIGGGRTYYADSVKGRFTISQDNAKNTVDLQMNSLKPEDTAMYYCAAGLVYGEAWLDSRHYNKWGQGTQVTVSS
notes: as for B4
B12: mIL27Ra VHH4 (VHH)
VHH: QVQLQESGGGSVQAGGSLRLSCAASGYSINRMGWFRQAPGKEREGVAAISIGGGQTYYADSVKGRFTISQDNAKNTVDLQMNSLKPEDTAMYYCAAGLVYGEAWLDSRHYNKWGQGTQVTVSS
notes: as for B4
B13: mIL27Ra VHH12 (VHH)
VHH: QVQLQESGGGSVQTGGSLRLSCAASGYSINRMAWFRQAPGKEREGVAAISIGGDRTYYADSVKGRFTISQDNAKHTVDLQMNSLKPEDTAMYYCAAGLVYGEAWLDSRHYNKWGQGTQVTVSS
notes: as for B4
B14: hIL27Ra VHH4 (VHH)
VHH: QVQLQESGGGLVQPGESLRLSCTASGFTFSNYAMSWVRQAPGKGLEWVSGINVAYGITSYADSVKGRFTISRDNTKNTLYLQLNSLKTEDTAIYYCVKHSGTTIPRGFISYTKRGQGTQVTVSS
notes: as for B1
B15: hIL27Ra VHH10 (VHH)
VHH: QVQLQESGGGSVQAGGSLRLSCRASGSTYSNYCLGWFRQITGKEREGVAVINWVGGMLYFADSVKGRFTVSQDQAKNTLYLQMNSLKPEDTAMYYCAAESVSSFSCGGWLTRPDRVPYWGQGTQVTVSS
notes: as for B1
B16: hIL27Ra VHH22 (VHH)
VHH: QVQLQESGGGSVQAGGSLRLSCRASGSTYSNYCLGWFRQTTGKEREGVAVINWVGGMLYFADSVKGRFTVSQDQAKNTVYLQMNSLKPEDTAMYYCAAESVSSFSCGGWLTRPDRVPYWGQGTQVTVSS
notes: as for B1
B17: hIL27Ra VHH16 (VHH)
VHH: QVQLQESGGGSVQAGGSLRLSCRASGSTYSNYCLGWFRQITGKEREGVAVINWVGGMLYFADSVKGRFTVSQDQAKNTVYLQMNSLKPEDTAMYYCAAESASSFSCGGWLTRPDRVPYWGQGTQVTVSS
notes: as for B1
B18: hIL27Ra VHH23 (VHH)
VHH: QVQLQESGGGSVQAGGSLRLSCRASRSPYGNYCLGWFRQSTGKEREGVAVINWVGGMLYFADSVKGRFTVSQDHAKNTVTLQMNSLKPEDTAMYYCAAESVSSFSCGGWLTRPDRVPYWGQGTQVTVSS
notes: as for B1
B19: hIL27Ra VHH12 (VHH)
VHH: QVQLQESGGGSVQAGESLRLSCRASGSTYSNYCLGWFRQITGKEREGVAVINWVGGMLYFADSVKGRFTVSQDQAKNTVYLEMNSLKPEDTAMYYCATESVSSFSCGGWLTRPDRVPYWGQGTQVTVSS
notes: as for B1
B20: hIL27Ra VHH11 (VHH)
VHH: QVQLQESGGGSVQAGGSLRLSCRASGSTYSNYCLGWFRQSTGKEREGVAVINWVGGMLYFADSVKGRFTVSQDHAKNTVTLQMNSLKPEDTAMYYCAAESVSSFSCGGWLTRPGRVPYWGQGTQVTVSS
notes: as for B1
B21: hIL27Ra VHH6 (VHH)
VHH: QVQLQESGGGLVQPGGSLRLSCAASGFSFSSYAMKWVRQAPGKGLEWVSTISSGGSSTNYADSVKGRFTISRDNAKNTLYLQLNSLKIEDTAMYYCAKAIVPTGATMERGQGTQVTVSS
notes: as for B1
B22: mIL27Ra VHH2 (VHH)
VHH: QVQLQESGGGSVQAGGSLRLSCTASGYTSSRYCMGWFRQTPGKKREGVAAIYTGGGTTFYHGSVKGRFTISQDNTTNTVYLQMHNLKPEDTAMYYCAAGPVTRACDEYNYWGQGTQVTVSS
notes: as for B4
B23: hIL27Ra VHH7 (VHH)
VHH: QVQLQESGGGLVQPGGSLRLSCAASGFTFSSYPMSWVRQAPGKGLEWISTISAGGDTTLYADSVKGRFTSSRDNAKNTLYLQLNSLKTEDTAIYYCAKRIDCNSGYCYRRNYWGQGTQVTVSS
notes: as for B1
B24: hIL27Ra VHH20 (VHH)
VHH: QVQLQESGGGLVQPGGSLRLSCAASGFTFSSYPMSWVRQAPGKGLEWVSTISSGGDTTLYADSVKGRFTSSRDNAKNTLYLQLNSLKTEDTAMYYCAKRIDCNSGYCYKRSYWGQGTQVTVSS
notes: as for B1
B25: hIL27Ra VHH8 (VHH)
VHH: QVQLQESGGGSVQVGGSLRLSCAASGFTFSSYPMSWVRQAPGKGLEWISTISAGGDTTLYADSVKGRFTSSRDNAKNTLYLQLNSLKTEDTAIYYCAKRIDCNSGYCYRRNYWGQGTQVTVSS
notes: as for B1

Tests used:
[1] = biological target: T1, hIL27Rα ECD antigen; assay: PE-ELISA, periplasmic extract on antigen-coated plate
Protocol: (§1) Upon completion of the biopanning of Example 3, three 96-well plates of individual phage clones were isolated in order to perform periplasmic extract ELISA (PE-ELISA) on IL27Rα coated plates to identify positive VHH binders that selectively bound […]. A 96-well plate was coated with IL27Rα and PBS under the same conditions. Next, wells were blocked at 37° C. for 1 h. Then, 100 µl of extracted antibodies was added to each well and incubated for 1 h. Subsequently, 100 µl of anti-tag polyclonal antibody conjugated to HRP was added to each well and incubated at 37° C. for 1 h. Plates were developed with TMB substrate. The reaction was stopped by the addition of H2SO4. Absorbance at 450 nm was read on a microtiter plate reader. […] Positive clones were sequenced, and sequences analyzed to identify unique clonotypes.

[2] = biological target: T2, mIL27Rα ECD antigen; assay: as above
Protocol: as §1

Row | Binder | binding result [1] | binding result [2]
1 | B1 | binds | –
2 | B2 | binds | –
3 | B3 | binds | –
4 | B4 | – | binds
5 | B5 | – | binds
6 | B6 | binds | –
7 | B7 | binds | –
8 | B8 | binds | –
9 | B9 | binds | –
10 | B10 | binds | –
11 | B11 | – | binds
12 | B12 | – | binds
13 | B13 | – | binds
14 | B14 | binds | –
15 | B15 | binds | –
16 | B16 | binds | –
17 | B17 | binds | –
18 | B18 | binds | –
19 | B19 | binds | –
20 | B20 | binds | –
21 | B21 | binds | –
22 | B22 | – | binds
23 | B23 | binds | –
24 | B24 | binds | –
25 | B25 | binds | –
